# B1: Rituximab (anti-hu CD20 monoclonal antibody) (antibody, human IgG1, kappa, V domains shown)
# VH: QVQLQQPGAELVKPGASVKMSCKASGYTFTSYNMHWVKQTPGRGLEWIGAIYPGNGDTSYNQKFKGKATLTADKSSSTAYMQLSSLTSEDSAVYYCARSTYYGGDWYFNVWGAGTTVTVSA
# VL: QIVLSQSPAILSASPGEKVTMTCRASSSVSYIHWFQQKPGSSPKPWIYATSNLASGVPVRFSGSGSGTSYSLTISRVEAEDAATYYCQQWTSNPPTFGGGTKLEIKR
# B2: T2.01 (anti-hu CD20/hu IL-12, hu IgG1) (bispecific antibody)
# heavy: not shown
# light: QIVLSQSPAILSASPGEKVTMTCRASSSVSYIHWFQQKPGSSPKPWIYATSNLASGVPVRFSGSGSGTSYSLTISRVEAEDAATYYCQQWTSNPPTFGGGTKLEIKRTVAAPSVFIFPPSDEQLKSGTASVVCLLNNFYPREAKVQWKVDNALQSGNSQESVTEQDSKDSTYSLSSTLTLSKADYEKHKVYACEVTHQGLSSPVTKSFNRGEC
# chain: not shown
# B3: T2.02 (anti-hu CD20/hu IL-12 mut1, hu IgG1) (bispecific antibody)
# heavy: not shown
# light: B2 light
# chain: not shown
# Legend:
# [1] = target: T1, human CD20 on Raji and Ramos cells (human, UniProt P11836 1-297); assay: cell-based or functional assay
# T1 sequence (looked up): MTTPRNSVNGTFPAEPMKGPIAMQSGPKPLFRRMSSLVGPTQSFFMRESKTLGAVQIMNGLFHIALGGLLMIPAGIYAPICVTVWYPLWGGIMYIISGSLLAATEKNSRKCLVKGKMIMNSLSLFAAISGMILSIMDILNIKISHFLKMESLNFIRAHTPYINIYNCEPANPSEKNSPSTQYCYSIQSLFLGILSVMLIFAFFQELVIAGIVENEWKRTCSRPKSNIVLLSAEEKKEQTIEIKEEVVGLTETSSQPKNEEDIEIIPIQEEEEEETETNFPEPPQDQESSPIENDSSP
# [2] = target: IL-12 receptor of human T cells (human, UniProt P42701 24-662; Q99665 24-862); assay: cell-based or functional assay
# Chain of IL-12 receptor of human T cells (Q99665 24-862, chain 2 of 2, other chains not shown): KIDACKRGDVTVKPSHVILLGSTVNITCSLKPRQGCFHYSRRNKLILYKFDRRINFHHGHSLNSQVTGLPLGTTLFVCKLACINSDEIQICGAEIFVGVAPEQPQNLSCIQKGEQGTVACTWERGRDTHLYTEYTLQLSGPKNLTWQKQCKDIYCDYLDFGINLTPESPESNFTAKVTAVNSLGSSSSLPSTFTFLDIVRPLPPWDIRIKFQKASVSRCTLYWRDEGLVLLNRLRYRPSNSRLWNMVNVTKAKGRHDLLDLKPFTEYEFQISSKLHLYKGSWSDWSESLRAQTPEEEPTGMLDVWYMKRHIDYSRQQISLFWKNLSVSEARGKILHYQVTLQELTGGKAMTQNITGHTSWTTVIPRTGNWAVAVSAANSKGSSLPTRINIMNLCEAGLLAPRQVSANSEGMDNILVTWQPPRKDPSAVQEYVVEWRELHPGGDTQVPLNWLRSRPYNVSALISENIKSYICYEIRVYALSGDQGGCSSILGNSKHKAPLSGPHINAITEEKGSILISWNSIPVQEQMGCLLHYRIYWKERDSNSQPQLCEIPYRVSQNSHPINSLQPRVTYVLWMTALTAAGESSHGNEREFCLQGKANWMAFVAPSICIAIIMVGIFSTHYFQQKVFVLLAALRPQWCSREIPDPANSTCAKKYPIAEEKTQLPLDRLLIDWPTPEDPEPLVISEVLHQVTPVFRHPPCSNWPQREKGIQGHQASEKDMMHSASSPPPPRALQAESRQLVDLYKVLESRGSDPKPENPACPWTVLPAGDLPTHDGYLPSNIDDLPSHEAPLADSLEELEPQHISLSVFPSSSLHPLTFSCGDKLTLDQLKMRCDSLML
Binder,"ADCC Reporter Bioassay on Raji target cells, 50% effective concentration (EC50) [1]","p-STAT4 (Tyr693) AlphaLISA in activated human T cells, EC50 [2]"
B1,31100 ng/mL,
B2,,0.555 ng/mL
B3,,1.55 ng/mL

# Source: patent US20230295327A1 (KANAPH THERAPEUTICS, published 2023)
